Laboratory results published in US20240376185A1 (SMIVET B V, published 2024).
Positions count from the first letter of the chain named.

Assays:
[1] = target: T1, tetanus neurotoxin (TeNT), authentic tetanus holotoxin (Clostridium tetani, UniProt P04958 2-1315); assay: ELISA, directly coated TeNT, biotinylated binder
T1 sequence (P04958 2-457 limits assumed, chain 1 of 2): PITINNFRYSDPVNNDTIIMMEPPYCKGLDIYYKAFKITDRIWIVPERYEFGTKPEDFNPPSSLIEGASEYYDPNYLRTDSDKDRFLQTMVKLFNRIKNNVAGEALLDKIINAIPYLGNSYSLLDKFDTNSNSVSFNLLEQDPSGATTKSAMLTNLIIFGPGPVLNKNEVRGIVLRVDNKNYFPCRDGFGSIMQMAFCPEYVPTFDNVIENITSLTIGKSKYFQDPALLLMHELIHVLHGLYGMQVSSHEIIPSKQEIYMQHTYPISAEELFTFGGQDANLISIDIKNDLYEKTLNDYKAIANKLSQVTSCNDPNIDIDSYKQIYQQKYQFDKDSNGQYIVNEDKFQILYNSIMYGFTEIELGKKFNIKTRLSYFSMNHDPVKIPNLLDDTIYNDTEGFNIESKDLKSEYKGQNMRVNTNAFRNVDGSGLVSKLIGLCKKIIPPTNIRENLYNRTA
T1 sequence (P04958 458-1315 limits assumed, chain 2 of 2): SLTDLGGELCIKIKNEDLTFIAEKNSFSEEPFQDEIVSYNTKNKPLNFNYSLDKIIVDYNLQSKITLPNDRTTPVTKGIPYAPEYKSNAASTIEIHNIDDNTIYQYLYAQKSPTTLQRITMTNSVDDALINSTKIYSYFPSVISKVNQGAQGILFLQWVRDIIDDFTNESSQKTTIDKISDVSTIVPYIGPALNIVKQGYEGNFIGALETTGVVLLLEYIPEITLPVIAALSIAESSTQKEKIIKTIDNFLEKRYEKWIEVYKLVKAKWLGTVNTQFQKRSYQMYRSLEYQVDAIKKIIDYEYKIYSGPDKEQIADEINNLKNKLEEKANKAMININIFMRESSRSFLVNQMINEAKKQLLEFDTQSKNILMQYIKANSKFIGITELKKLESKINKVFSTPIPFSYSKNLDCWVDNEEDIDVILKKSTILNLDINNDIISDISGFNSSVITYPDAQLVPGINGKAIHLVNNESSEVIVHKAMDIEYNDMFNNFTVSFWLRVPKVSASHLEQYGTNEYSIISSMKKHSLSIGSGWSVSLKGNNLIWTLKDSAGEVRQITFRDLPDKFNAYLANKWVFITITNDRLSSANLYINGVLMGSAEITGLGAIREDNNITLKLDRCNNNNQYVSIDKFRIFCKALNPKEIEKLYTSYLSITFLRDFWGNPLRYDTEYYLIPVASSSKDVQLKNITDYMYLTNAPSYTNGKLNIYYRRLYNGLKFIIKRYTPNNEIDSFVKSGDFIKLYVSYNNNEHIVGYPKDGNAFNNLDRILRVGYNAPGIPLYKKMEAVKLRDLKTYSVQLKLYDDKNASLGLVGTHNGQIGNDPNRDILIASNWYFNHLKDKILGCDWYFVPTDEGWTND

[2] = target: T2, recombinant tetanus toxin fragment C (rTTC) (Clostridium tetani, UniProt P04958 865-1315); assay: ELISA, directly coated rTTC, unlabelled binder
T2 sequence: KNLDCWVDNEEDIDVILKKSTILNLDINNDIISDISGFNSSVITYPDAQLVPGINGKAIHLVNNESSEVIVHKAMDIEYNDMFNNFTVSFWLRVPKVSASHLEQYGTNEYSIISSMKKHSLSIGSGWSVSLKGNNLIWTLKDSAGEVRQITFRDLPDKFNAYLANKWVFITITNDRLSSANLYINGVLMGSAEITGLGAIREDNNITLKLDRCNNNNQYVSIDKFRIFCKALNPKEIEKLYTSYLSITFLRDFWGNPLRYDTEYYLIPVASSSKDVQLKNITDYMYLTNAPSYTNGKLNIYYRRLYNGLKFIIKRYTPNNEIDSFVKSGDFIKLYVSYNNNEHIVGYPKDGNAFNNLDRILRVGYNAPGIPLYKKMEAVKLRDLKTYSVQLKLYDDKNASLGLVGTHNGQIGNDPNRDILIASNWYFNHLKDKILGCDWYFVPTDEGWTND

[3] = target: T1, tetanus neurotoxin (TeNT), authentic …; assay: GT1b-TeNT inhibition ELISA, unlabelled binder
[4] = target: T1, tetanus neurotoxin (TeNT), authentic …; assay: ELISA, directly coated TeNT, unlabelled binder
[5] = target: T1, tetanus neurotoxin (TeNT), authentic …; assay: ELISA, TeNT captured with cAb-TT2, biotinylated binder
[6] = target: T1, tetanus neurotoxin (TeNT), authentic …; assay: ELISA, TeNT captured with cAb-TT2, unlabelled binder
[7] = target: T1, tetanus neurotoxin (TeNT), authentic …; assay: GT1b-TeNT inhibition ELISA, EC at A450 0.59
[8] = target: T3, recombinant tetanus toxin fragment C (rTTC) (Clostridium tetani, UniProt P04958 865-1315); assay: ELISA, directly coated rTTC, E. coli supernatant
T3 sequence: T2 sequence

[9] = target: T4, tetanus neurotoxin (TeNT), authentic tetanus holotoxin (Clostridium tetani, UniProt P04958 2-1315); assay: GT1b-TeNT inhibition ELISA (no SDA: 1.302, 1.257)
T4 sequence (P04958 2-457 limits assumed, chain 1 of 2): as the sequence (P04958 2-457 limits assumed, chain 1 of 2) above
T4 sequence (P04958 458-1315 limits assumed, chain 2 of 2): as the sequence (P04958 458-1315 limits assumed, chain 2 of 2) above

[10] = target: T4, tetanus neurotoxin (TeNT), authentic …; assay: ELISA, directly coated TeNT, E. coli supernatant
[11] = target: T4, tetanus neurotoxin (TeNT), authentic …; assay: ELISA, cAb-TT2 captured TeNT, E. coli supernatant

B1: SVT05L (VHH)
VHH: QVQLQESGGGLVQPGGSLRLSCSASGFSFTDDYGIGWFRSGPGKGREAVAPIADREAVAAIALSDGNTYYSASAKGRFTISRDNAKSTAYLQMNNLKPEDTATYYCAADFWGYGMSWPMATLWEYWGQGIQVTVSS
[1]
  EC resulting in A450 0.4: 0.98 ng/mL
  maximal absorbance at 450 nm: 1.26
[2]
  maximal absorbance at 450 nm: 0.604
[3]
  minimal absorbance at 450 nm: 0.655
[4]
  EC resulting in A450 0.2: 0.51 ng/mL
  maximal absorbance at 450 nm: 1.29
[5]
  EC resulting in A450 0.2: 1.7 ng/mL
  maximal absorbance at 450 nm: 0.622
[6]
  EC resulting in A450 0.15: 0.86 ng/mL
  maximal absorbance at 450 nm: 0.375
[7]
  concentration giving A450 of 0.59: > 1 µg/mL

B2: SVT05 (VHH)
VHH: B1 VHH
[8]
  absorbance at 450 nm: 0.108 A450
[9]
  absorbance at 450 nm: 0.985 A450
[10]
  absorbance at 450 nm: 1.04 A450
[11]
  absorbance at 450 nm: 0.548 A450

B3: SVT31L (VHH)
VHH: QVQLQESGGGSVQAGGSLTLSCAASEFSYNDYTIAWFRRAAGKGRVEDGEGVASITKSYDRAYDNRIHYADSVKGRFTISRDNAKNTVYLQMTSLNPSDTAVYYCALDITPPGGIGASLTEGFLFDYWGQGTQVTVSS
[1]
  EC resulting in A450 0.4: 0.98 ng/mL
  maximal absorbance at 450 nm: 1.43
[2]
  maximal absorbance at 450 nm: 0.483
[3]
  minimal absorbance at 450 nm: 0.568
[4]
  EC resulting in A450 0.2: 2.4 ng/mL
  maximal absorbance at 450 nm: 1.32
[5]
  EC resulting in A450 0.2: 1.5 ng/mL
  maximal absorbance at 450 nm: 1.03
[6]
  EC resulting in A450 0.15: 4.3 ng/mL
  maximal absorbance at 450 nm: 0.27
[7]
  concentration giving A450 of 0.59: 0.986 µg/mL

B4: SVT08 (VHH)
VHH: B3 VHH with T19R, A23T, K57T, A70G, S94N, A106G
[8]
  absorbance at 450 nm: 0.13 A450
[9]
  absorbance at 450 nm: 0.746 A450
[10]
  absorbance at 450 nm: 1.07 A450
[11]
  absorbance at 450 nm: 0.51 A450

B5: SVT06 (VHH)
VHH: QVQLQESGGGSVQAGGSLRLSCTASELSYDDYTIAWFRRAAGEGRVEDGEGVASITKSYDRAYDNKINYGHSVKGRFTISRDNAKNTVYLQMTDLLPSDTAVYYCALDITPPGGVGASLTEGFLFDYWGQGTQVTVSS
[8]
  absorbance at 450 nm: 0.105 A450
[9]
  absorbance at 450 nm: 0.72 A450
[10]
  absorbance at 450 nm: 1.04 A450
[11]
  absorbance at 450 nm: 0.683 A450

B6: SVT31 (VHH)
VHH: B3 VHH
[8]
  absorbance at 450 nm: 0.218 A450
[9]
  absorbance at 450 nm: 0.105 A450
[10]
  absorbance at 450 nm: 1.38 A450
[11]
  absorbance at 450 nm: 1.09 A450

B7: SVT20 (VHH)
VHH: QVQLQQSGGGLVQAGGSLRLSCAASGRTMSSYAMGWFRQAPGKQREFVAAISRSGGNTYYTDSVKGRFTISRDNAKNTLYLQMNSLKPEETAVYYCAADPNLMYESKWKYRALEAWGQGTLVTVSS
[8]
  absorbance at 450 nm: 0.165 A450
[9]
  absorbance at 450 nm: 0.132 A450
[10]
  absorbance at 450 nm: 1.08 A450
[11]
  absorbance at 450 nm: 0.685 A450

B8: SVT20L (VHH)
VHH: B7 VHH
[1]
  EC resulting in A450 0.4: 2.1 ng/mL
  maximal absorbance at 450 nm: 1.2
[2]
  maximal absorbance at 450 nm: 0.967
[3]
  minimal absorbance at 450 nm: 0.117
[4]
  EC resulting in A450 0.2: 1.2 ng/mL
  maximal absorbance at 450 nm: 1.54
[5]
  EC resulting in A450 0.2: 4.5 ng/mL
  maximal absorbance at 450 nm: 0.535
[6]
  EC resulting in A450 0.15: 3.1 ng/mL
  maximal absorbance at 450 nm: 0.327
[7]
  concentration giving A450 of 0.59: 0.039 µg/mL

B9: SVT34 (VHH)
VHH: B7 VHH with Q6E, A14P, M29I, T69I, S85N
[8]
  absorbance at 450 nm: 0.16 A450
[9]
  absorbance at 450 nm: 0.117 A450
[10]
  absorbance at 450 nm: 1.43 A450
[11]
  absorbance at 450 nm: 0.483 A450

B10: SVT22 (VHH)
VHH: QVQLQESGGGLVQAGESLRLSCTASGISFDDYAIGWFRQAPGQQRKGVACISKADGRTDYLGSVKGRFTLSTDNTKNTVHLQMNNLKPEDTALYTCAAEYKSCGMGYKPIDYWGQGMQVTVSS
[8]
  absorbance at 450 nm: 0.138 A450
[9]
  absorbance at 450 nm: 0.137 A450
[10]
  absorbance at 450 nm: 1.08 A450
[11]
  absorbance at 450 nm: 0.299 A450

B11: SVT16 (VHH)
VHH: QVQLQESGGGSVQAGDSLRLSCAASGRTISNYAMGWFRQAPGKQREFVAAISRSDNTYYTDSVKGRFTISRDNAKNTLYLQMNSLKPEETAVYYCAADPNLMYESKWKYRALEAWGQGTLVTVSS
[8]
  absorbance at 450 nm: 0.151 A450
[9]
  absorbance at 450 nm: 0.12 A450
[10]
  absorbance at 450 nm: 1.04 A450
[11]
  absorbance at 450 nm: 0.736 A450

B12: SVT25 (VHH)
VHH: B11 VHH with S11L, D16G, N31V, A74V, S105T
[8]
  absorbance at 450 nm: 0.211 A450
[9]
  absorbance at 450 nm: 0.139 A450
[10]
  absorbance at 450 nm: 1.14 A450
[11]
  absorbance at 450 nm: 0.427 A450

B13: SVT25L (VHH)
VHH: B11 VHH with S11L, D16G, N31V, A74V, S105T
[1]
  EC resulting in A450 0.4: 43 ng/mL
  maximal absorbance at 450 nm: 0.985
[2]
  maximal absorbance at 450 nm: 0.936
[3]
  minimal absorbance at 450 nm: 0.106
[4]
  EC resulting in A450 0.2: 3.6 ng/mL
  maximal absorbance at 450 nm: 1.56
[5]
  EC resulting in A450 0.2: 84 ng/mL
  maximal absorbance at 450 nm: 0.302
[6]
  EC resulting in A450 0.15: 6.4 ng/mL
  maximal absorbance at 450 nm: 0.362
[7]
  concentration giving A450 of 0.59: 0.133 µg/mL

B14: SVT29L (VHH)
VHH: QVQLQESGGGLVQTGGSLTLSCRAYGRAFDNYHFGWFRQAPGKDREFVASISWKGGSTYRANFALGRFTSSVNRGESSVYLHMSGLTPEDTATYYCAAHDGGDWNYHTGMDYWGKGILVTVSS
[1]
  EC resulting in A450 0.4: 6.9 ng/mL
  maximal absorbance at 450 nm: 1.13
[2]
  maximal absorbance at 450 nm: 0.58
[3]
  minimal absorbance at 450 nm: 0.135
[4]
  EC resulting in A450 0.2: 2.6 ng/mL
  maximal absorbance at 450 nm: 1.52
[5]
  EC resulting in A450 0.2: 14 ng/mL
  maximal absorbance at 450 nm: 0.596
[6]
  EC resulting in A450 0.15: 6.3 ng/mL
  maximal absorbance at 450 nm: 0.429
[7]
  concentration giving A450 of 0.59: 0.114 µg/mL

B15: SVT15 (VHH)
VHH: B14 VHH with T19R, Y25S, D30A, R60Y, N73D, G75A, H82Q
[8]
  absorbance at 450 nm: 0.099 A450
[9]
  absorbance at 450 nm: 0.19 A450
[10]
  absorbance at 450 nm: 1.03 A450
[11]
  absorbance at 450 nm: 0.68 A450

B16: SVT29 (VHH)
VHH: B14 VHH
[8]
  absorbance at 450 nm: 0.111 A450
[9]
  absorbance at 450 nm: 0.152 A450
[10]
  absorbance at 450 nm: 1.28 A450
[11]
  absorbance at 450 nm: 0.868 A450

B17: SVT13 (VHH)
VHH: QVQLQESGGGLVQAGGSLRLSCAVSGTNFDDYAIGWFRQAPGKRREAVACISKTDGVTRYGNGVKGRFTISSDEARNTVFLQMNDLKDEDTAIYYCIGDFKSCGMGYKPIDHWGRGIQVTVSS
[8]
  absorbance at 450 nm: 0.128 A450
[9]
  absorbance at 450 nm: 0.196 A450
[10]
  absorbance at 450 nm: 0.762 A450
[11]
  absorbance at 450 nm: 0.165 A450
